From patent US20130122545A1
Each block holds one molecule with its values, some of them ahead of it.

What was measured:
[1] = target: Aspergillus niger 19 kDa protease (Aspergillus niger); assay: cell-based or functional assay
[2] = target: T1, Boc-FSR-MCA
T1 chain: FSR

[3] = target: T2, Glt-AAF-MCA
T2 chain: AAF

[4] = target: T3, Suc(OMe)-AAPV-MCA
T3 chain: AAPV

[5] = target: T4, Suc-LLVY-MCA
T4 chain: LLVY

[6] = target: T5, Z-LLE-MCA
T5 chain: LLE

residual activity (%) [1]: 89%
Molecule: leupeptin (peptide)

residual activity (%) [1]: 91%
Molecule: pepstatin A (peptide)

B1: Aspergillus niger 19 kDa protease (protein)
chain: SPIPSYSRPGRGQHFQDAYGFAEACIAGDRMEIAGQTGMSPTSTEVPPTLEEEVAQAFNNINEVILYTLEKAKPDLRASVKSGWDRVVKIRTYHVQLPQTREKIIGLMVENVKKWCPDHQPTWTMLGIEALPFEGQNLEIEVDVFLG
substrate specificity: increase of fluorescent strength, relative (column has no head) [2]: 0.3%
substrate specificity: increase of fluorescent strength, relative (column has no head) [3]: 1.6%
substrate specificity: increase of fluorescent strength, relative (column has no head) [4]: 0.2%
substrate specificity: increase of fluorescent strength, relative (column has no head) [5]: 100.0%
substrate specificity: increase of fluorescent strength, relative (column has no head) [6]: 0.1%
